{"source": "IntAct's records for PubMed 19893486", "parents": {"B1": {"name": "Rho guanine nucleotide exchange factor TIAM2 (Mus musculus), Q6ZPF3 (parent)", "chain": "MGNSESQYTFQGSKNHSNTVTGAKQKPCSLKIRSVHAKDEKSLHGWTHGSSGAGYKSRSLARSCLSHFKNHQPYATRLSGPTCKVSKGTTYSKHRANTPGNDFQGNSGAFLPENGFHYVDRESEESHITSNGHLLTCYGRKESLASTPPGEDHRSPRVLIKTLGKLDGCLRVEFHNGGNPHKGTSEDPSGPVRLLRYSPTLASETCPVRETRRHSAAGSPSSQRPSPTDSRLRSSKGSSLSSESSWYDSPWGNAGEVSEVEGSFLAPSTPDPSLPSSFPPSDTKKPFNQSSSLSSLRELYKDPNLGCRSPSGTCLSSNEYISSQVSLNNRVSFASDMDVPSRVDHRDPLHYSSFTLPCRKSKALTEDAAKKDTLKARMRRFSDWTGSLSRKKRKLQEPRSMEGSEYFDSHSDGLNAEGQVPAQTSSLLWSGGSAQTLPHRSESTHAISVDPLRQNIYENFMRELEMSRSNTEHVETSTETMESSSESVSSLEQLDLLFEKEQGVVRKAGWLFFKPLVTLQKERKLELVARRKWKQYWVTLKGCTLLFYETYGKNSTEQNSAPRCALFAEDSIVQSVPEHPKKEHVFCLSNSCGDVYLFQATSQTDLENWVTAIHSACASLFAKKHGKEDTVRLLKSQTRSLLQKIDMDSKMKKMAELQLSVVSDPKNRKAIENQIRQWEQNLEKFHMDLFRMRCYLASLQGGELPNPKSLLAATSRPSKLALGRLGVLSVSSFHALVCSRDDSTLRKRTLSLTQRGKSKKGIFSSLKGLDTLARKGREKRASITQMFDSSHSHGFLGTQLPQKSTNSNKAHDLHLYGSAVDSALRDSMWEVQTYVHFQDNEGVTVTIKPEHRVEDVLALVCKMRQLEPTHYGLQLRKVVDKSVEWCVPALYEYMQEQVYDEIEVFPLSVYDVQLTKTGDMTDFGFAVTVQVDEHQHLNRIFISDVLPDSLAYGGGLRKGNEITSLNGEPVSDLDIQQMEALFSEKSVGLTLVARPVTTRRTLCASWSDSDLFSRDQKSLPPSPNQSQLLEEFLDNFRKTATSDFSNVPEITTGLKRSQTEGTLDQVPHREKMEQTFLSADQIAELCRDLNNTHTNSMEAPTESHDPPPRPLARHLSDADRLRKVIQELVDTEKSYVKDLSCLFELYLEPLQNETFLTQDEMESLFGSLPEMLEFQKVFLETLEDAISASSDFSVLETPSQFRKLLFSLGGSFLYYADHFKLYSGFCANHIKVQRVLERAKTDKAFKAFLDARNPTKQHSSTLESYLIKPVQRVLKYPLLLKELVSLTDHESEEHYHLTEALKAMEKVASHINEMQKIYEDYGMVFDQLVAEQSGTEKEVTELSMGELLMHSTVSWLNPFLSLGKARKDIELTVFVFKRAVILVYKENCKLKKKLPSNSRPAHNSADLDPFKFRWLIPISALQVRLGNTAGTENNSTWELIHTKSEIEGRPETIFQLCCSDSENKTSIVKVIRSILRENFRRHIKCELPLEKTCKDRLVPLKNRVPVSAKLASSRSLKGLRTSSSSEWPSEPSKGNSLDSDECSLSSGTQSSGCPVAESRRDSKSTELEKDAQEGLAEFPDGLIKESDILSDEDEDFHHPLKQGSPTKDIEIQFQRLKISEESDVHPVGQQPLTESGEQPKLVRGHFCPIKRKANSTKRGRGTLLKAQTRHQSLDSHPETASIDLNLVLEREFSVQSLTSVVNEEGFYETQSHGKS", "partner": "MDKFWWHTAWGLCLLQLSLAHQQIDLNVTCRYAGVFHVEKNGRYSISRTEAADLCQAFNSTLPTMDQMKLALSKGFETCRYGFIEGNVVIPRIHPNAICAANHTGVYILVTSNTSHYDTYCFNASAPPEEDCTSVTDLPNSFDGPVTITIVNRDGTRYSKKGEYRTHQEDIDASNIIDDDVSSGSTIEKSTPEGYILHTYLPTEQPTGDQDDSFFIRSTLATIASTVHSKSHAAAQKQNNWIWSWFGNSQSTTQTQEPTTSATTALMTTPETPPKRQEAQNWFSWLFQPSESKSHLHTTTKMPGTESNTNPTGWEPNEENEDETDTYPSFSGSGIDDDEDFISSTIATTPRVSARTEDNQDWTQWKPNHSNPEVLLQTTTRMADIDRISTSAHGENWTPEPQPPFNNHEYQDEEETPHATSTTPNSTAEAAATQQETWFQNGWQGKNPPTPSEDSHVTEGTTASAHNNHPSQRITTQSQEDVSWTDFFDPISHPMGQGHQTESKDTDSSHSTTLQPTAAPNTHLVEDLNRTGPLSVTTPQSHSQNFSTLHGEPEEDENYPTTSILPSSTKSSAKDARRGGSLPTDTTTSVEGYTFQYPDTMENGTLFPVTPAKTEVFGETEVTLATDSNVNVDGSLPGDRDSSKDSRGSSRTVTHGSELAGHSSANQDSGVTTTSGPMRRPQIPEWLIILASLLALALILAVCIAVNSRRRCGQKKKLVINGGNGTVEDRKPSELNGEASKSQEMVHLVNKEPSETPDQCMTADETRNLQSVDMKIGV"}, "B2": {"name": "Rho guanine nucleotide exchange factor TIAM2 (Mus musculus), Q6ZPF3 (parent)", "chain": "B1 chain"}, "B3": {"name": "CD44 antigen (Mus musculus), P15379 (parent)", "chain": "B1 partner"}, "B4": {"name": "Rho guanine nucleotide exchange factor TIAM1 (Mus musculus), Q60610 (parent)", "chain": "MGNAESQNVDHEFYGEKHASLGRKHTSRSLRLSHKTRRTRHASSGKAIHRNSEVSTRSSSTPSIPQSLAENGLEPFSQEGALDDFGDPIWVDRVDMGLRPVSYTDSSVTPSVDGSIVLTAASVQSMPDSEESRLYGDDATYLAEGGRRQCPYTSNGPTFMETASFKKKRSKSADIWREDSLEFSLSDLSQEHLTSNEEILGSAEEKDCEEARGMETEASPRQLSTCQRANSLGDLYAQKNSGVKANGGPRNRFSSYCRNLVSDIPDLAKHKMPPAAAEETPPYSNYNTLPCRKSHCLSEGATNPQISLSKSMQGRRAKTTQDVNTGEGSEFADSGIEGATTDTDLLSRRSNATNSSYSPPTGRAFVGSDSGSSSTGDRARQGVYENFRRELEMSTTNSESLEEAGSAHSDEQSSGTLSSPGQSDILLTAAQGTVRKAGALAVKNFLVHKKNKKVESATRRKWKHYWVSLKGCTLFFYETDGRSGIDHNSVPKHAVWVENSIVQAVPEHPKKDFVFCLSNSLGDAFLFQTTSQTELENWITAIHSACAAAVARHHHKEDTLRLLKSEIKKLEQKIDMDEKMKKMGEMQLSSVTDSKKKKTILDQIFVWEQNLEQFQMDLFRFRCYLASLQGGELPNPKRLLAFASRPTKVAMGRLGIFSVSSFHALVAARTGEIGVRRRTQAMSRSASKRRSRFSSLWGLDTTSKKKQGRPTINQVFGEGTDAVKRSLEGIFDDTVPDGKREKEVVLPSVHQHNPDCDIWVHEYFTPSWFCLPNNQPALTVVRPGDTARDTLELICKTHQLDHSAHYLRLKFLMENRVQFYIPQPEEDIYELLYKEIEICPKVTQNIHIEKSDAAADNYGFLLSSVDEDGIRRLYVNSVKETGLASKKGLKAGDEILEINNRAAGTLNSSMLKDFLSQPSLGLLVRTYPEPEGGVELLENPPHRVDGPVDLGESPLAFLTSNPGHSLSSEQGSSAETAPEEGEGPDLESSDETDHSSKSTEQVAAFCRSLHEMSPSDSSPSPQDATSPQLATTRQLSDADKLRKVICELLETERTYVKDLNCLMERYLKPLQKETFLTQDELDVLFGNLTEMVEFQVEFLKTLEDGVRLVPDLEKLEKVDQFKKVLFSLGGSFLYYADRFKLYSAFCASHTKVPKVLVKAKTDTAFKAFLDAQNPRQQHSSTLESYLIKPIQRVLKYPLLLRELFALTDAESEEHYHLDVAIKTMNKVASHINEMQKIHEEFGAVFDQLIAEQTGEKKEVADLSMGDLLLHTSVIWLNPPASLGKWKKEPELAAFVFKTAVVLVYKDGSKQKKKLVGSHRLSIYEEWDPFRFRHMIPTEALQVRALPSADAEANAVCEIVHVKSESEGRPERVFHLCCSSPESRKDFLKSVHSILRDKHRRQLLKTESLPSAQQYVPFGGKRLCALKGARPAMSRAVSAPSKSLGRRRRRLARNRFTIDSDAISASSPEKEPQQPAGGGDTDRWVEEQFDLAQYEEQDDIKETDILSDDDEFCESLKGASVDRDLQEQLQAASISQRARGRRTLDSHASRMTQLKKQAALSGINGGLESASEEVIWVRREDFAPSRKLNTEI"}}, "data": [{"variants_of": "B1", "conditions": "with cd44_mouse Cd44, P15379", "values": [{"variant": "K627A", "effect of a mutation on the interaction": "decreasing interaction"}]}, {"variants_of": "B1", "conditions": "with cd44_mouse Cd44, P15379", "remark": "another data set of the same source", "values": [{"variant": "K624A", "effect of a mutation on the interaction": "decreasing interaction"}]}, {"variants_of": "B1", "conditions": "with cd44_mouse Cd44, P15379", "remark": "another data set of the same source", "values": [{"variant": "R632A", "effect of a mutation on the interaction": "decreasing interaction"}]}, {"variants_of": "B1", "conditions": "with cd44_mouse Cd44, P15379", "remark": "another data set of the same source", "values": [{"variant": "R693A", "effect of a mutation on the interaction": "decreasing interaction"}]}, {"variants_of": "B1", "conditions": "with cd44_mouse Cd44, P15379", "remark": "another data set of the same source", "values": [{"variant": "R716A", "effect of a mutation on the interaction": "decreasing interaction"}]}, {"variants_of": "B2", "conditions": "with PARD3, Q8TEW0-2", "values": [{"variant": "R716A", "effect of a mutation on the interaction": "decreasing interaction"}]}, {"variants_of": "B2", "conditions": "with pard3_human PARD3, Q8TEW0", "values": [{"variant": "R716A", "effect of a mutation on the interaction": "decreasing interaction"}, {"variant": "R693A", "effect of a mutation on the interaction": "decreasing interaction"}]}, {"variants_of": "B2", "conditions": "with PARD3, Q8TEW0-2", "remark": "another data set of the same source", "values": [{"variant": "R693A", "effect of a mutation on the interaction": "decreasing interaction"}]}, {"variants_of": "B2", "conditions": "with PARD3, Q8TEW0-2", "remark": "another data set of the same source", "values": [{"variant": "R632A", "effect of a mutation on the interaction": "decreasing interaction"}]}, {"variants_of": "B2", "conditions": "with PARD3, Q8TEW0-2", "remark": "another data set of the same source", "values": [{"variant": "K627A", "effect of a mutation on the interaction": "decreasing interaction"}]}, {"variants_of": "B2", "conditions": "with PARD3, Q8TEW0-2", "remark": "another data set of the same source", "values": [{"variant": "K624A", "effect of a mutation on the interaction": "decreasing interaction"}]}, {"variants_of": "B3", "conditions": "with tiam1_mouse Tiam1, Q60610", "values": [{"variant": "E752K", "effect of a mutation on the interaction": "disrupting interaction"}]}, {"variants_of": "B3", "conditions": "with tiam1_mouse Tiam1, Q60610", "remark": "another data set of the same source", "values": [{"variant": "E755K", "effect of a mutation on the interaction": "disrupting interaction"}]}, {"variants_of": "B3", "conditions": "with tiam1_mouse Tiam1, Q60610", "remark": "another data set of the same source", "values": [{"variant": "C760S", "effect of a mutation on the interaction": "disrupting interaction"}]}, {"variants_of": "B3", "conditions": "with tiam1_mouse Tiam1, Q60610", "remark": "another data set of the same source", "values": [{"variant": "P753A", "effect of a mutation on the interaction": "decreasing interaction"}]}, {"variants_of": "B3", "conditions": "with tiam1_mouse Tiam1, Q60610", "remark": "another data set of the same source", "values": [{"variant": "S754A", "effect of a mutation on the interaction": "decreasing interaction"}]}, {"variants_of": "B3", "conditions": "with tiam1_mouse Tiam1, Q60610", "remark": "another data set of the same source", "values": [{"variant": "T762A", "effect of a mutation on the interaction": "decreasing interaction"}]}, {"variants_of": "B4", "conditions": "with pard3_human PARD3, Q8TEW0", "values": [{"variant": "R622A", "effect of a mutation on the interaction": "decreasing interaction"}, {"variant": "R645A", "effect of a mutation on the interaction": "decreasing interaction"}]}]}
